This data set addresses PF11_0091 D1 (PF3D7_1107800, AP2 domain transcription factor, putative) (Plasmodium falciparum, UniProt Q8IIS4 1486-1548). The experiment in a line: EMSA; 5 mM MgCl2 with 10 mM EDTA; LightShift buffer, 2.5% glycerol, 50 mM KCl, 0.05% NP-40, 50 ng/uL poly(dI-dC); room temperature, 20 min. As to conditions: tags: N-terminal GST (pGEX-4T1), kept; label: 5' biotin.

B1: gbp130 (dsDNA)
DNA 1: AAGCAAATAAGATATTCCAAAAAAAAGTATTCTAATGTGTACTAATAAACCTTTATATAA
DNA 2: TTATATAAAGGTTTATTAGTACACATTAGAATACTTTTTTTTGGAATATCTTATTTGCTT
In the case of B1, the binding result is recorded as “binds”.
